How the values were obtained:
human podocalyxin [1] = biological target: T1, human podocalyxin (human); assay: cross competition FACS on MDA-MB-231 cells; unlabeled antibody 25 ug/mL; competitor and detected antibody: B-3G2.2 5 ug/mL
T1 chain: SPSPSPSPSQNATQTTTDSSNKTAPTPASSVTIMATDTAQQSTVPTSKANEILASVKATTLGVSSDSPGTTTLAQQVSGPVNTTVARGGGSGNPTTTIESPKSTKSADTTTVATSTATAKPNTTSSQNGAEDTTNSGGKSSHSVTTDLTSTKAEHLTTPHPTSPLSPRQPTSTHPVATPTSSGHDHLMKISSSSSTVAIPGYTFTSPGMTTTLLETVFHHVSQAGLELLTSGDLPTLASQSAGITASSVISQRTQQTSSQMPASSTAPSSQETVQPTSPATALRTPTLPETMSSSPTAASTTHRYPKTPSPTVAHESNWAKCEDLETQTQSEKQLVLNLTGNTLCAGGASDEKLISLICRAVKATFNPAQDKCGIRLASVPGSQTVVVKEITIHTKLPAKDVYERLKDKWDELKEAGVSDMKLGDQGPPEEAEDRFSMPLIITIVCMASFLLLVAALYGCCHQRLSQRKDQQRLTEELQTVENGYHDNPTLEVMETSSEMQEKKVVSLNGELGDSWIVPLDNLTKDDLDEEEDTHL

human podocalyxin [2] = biological target: T1, human podocalyxin; assay: cross competition FACS on MDA-MB-231 cells; unlabeled antibody 25 ug/mL; competitor and detected antibody: biotinylated Rb/Hu Podo83 5 ug/mL
human podocalyxin [3] = biological target: T1, human podocalyxin; assay: cross competition FACS on MDA-MB-231 cells; unlabeled antibody 25 ug/mL; detected antibody: B-Herceptin 5 ug/mL (control, its target on the cells not given)
human podocalyxin [4] = biological target: T1, human podocalyxin; assay: cross competition FACS on MDA-MB-231 cells; unlabeled antibody 25 ug/mL; detected antibody: B-Ova 12 5 ug/mL (control)
human podocalyxin [5] = biological target: T1, human podocalyxin; assay: cross competition FACS on MDA-MB-231 cells; unlabeled antibody 25 ug/mL; detected antibody: B-mIgG1 5 ug/mL (control)
[6] = biological target: human podocalyxin (human); assay: FACS, hPodo/MDA cells (MDA-MB-231 transfected with human podocalyxin cDNA)
[7] = biological target: human podocalyxin (human); assay: flow cytometry, supernatant 1:5, hPodo/MDA-MB-231 transient transfectants
[8] = biological target: human podocalyxin (human); assay: flow cytometry, supernatant 2:15 (so in the source), MDA-MB-231 cells
[9] = biological target: human podocalyxin (human); assay: flow cytometry, supernatant neat, MDA-MB-231 cells
[10] = biological target: human podocalyxin (human); assay: flow cytometry, supernatant 2:15 (so in the source), hPodo/MDA-MB-231 transient transfectants
[11] = biological target: human podocalyxin (human); assay: flow cytometry, supernatant 1:125, MDA-MB-231 cells
[12] = biological target: human podocalyxin (human); assay: flow cytometry, supernatant neat, hPodo/MDA-MB-231 transient transfectants
[13] = biological target: human podocalyxin (human); assay: flow cytometry, supernatant 1:125, hPodo/MDA-MB-231 transient transfectants
[14] = biological target: human podocalyxin (human); assay: flow cytometry, supernatant 1:5, MDA-MB-231 cells
human podocalyxin [15] = biological target: T1, human podocalyxin; assay: flow cytometry, supernatant 1:125, hPodo/MDA-MB-231 transient transfectants
human podocalyxin [16] = biological target: T1, human podocalyxin; assay: flow cytometry, supernatant neat, MDA-MB-231 cells
human podocalyxin [17] = biological target: T1, human podocalyxin; assay: kinetic exclusion assay (KinExA 3200), MDA-MB-231 cells
human podocalyxin [18] = biological target: T1, human podocalyxin; assay: flow cytometry, supernatant 2:15 (so in the source), hPodo/MDA-MB-231 transient transfectants
human podocalyxin [19] = biological target: T1, human podocalyxin; assay: flow cytometry titration on 293-6E cells (endogenous podocalyxin), 48 hours at 4 C
human podocalyxin [20] = biological target: T1, human podocalyxin; assay: flow cytometry, supernatant neat, hPodo/MDA-MB-231 transient transfectants
human podocalyxin [21] = biological target: T1, human podocalyxin; assay: flow cytometry, supernatant 1:5, MDA-MB-231 cells
human podocalyxin [22] = biological target: T1, human podocalyxin; assay: flow cytometry titration on 293-6E cells (endogenous podocalyxin), 24 hours at 4 C
human podocalyxin [23] = biological target: T1, human podocalyxin; assay: flow cytometry, supernatant 2:15 (so in the source), MDA-MB-231 cells
human podocalyxin [24] = biological target: T1, human podocalyxin; assay: flow cytometry, supernatant 1:5, hPodo/MDA-MB-231 transient transfectants
human podocalyxin [25] = biological target: T1, human podocalyxin; assay: flow cytometry, supernatant 1:125, MDA-MB-231 cells

| Molecule | FACS signal (name not given) (human podocalyxin [15]) | FACS signal (name not given) (human podocalyxin [16]) | FACS signal (name not given) (human podocalyxin [18]) | FACS signal (name not given) (human podocalyxin [20]) | FACS signal (name not given) (human podocalyxin [21]) | FACS signal (name not given) (human podocalyxin [23]) | FACS signal (name not given) (human podocalyxin [24]) | FACS signal (name not given) (human podocalyxin [25]) | other results |
| --- | --- | --- | --- | --- | --- | --- | --- | --- | --- |
| mIgG1 (antibody) |  |  |  |  |  |  |  |  | FACS signal (name not given) (human podocalyxin [1]): 26600; FACS signal (name not given) (human podocalyxin [2]): 124000; FACS signal (name not given) (human podocalyxin [3]): 4810; FACS signal (name not given) (human podocalyxin [4]): 458; FACS signal (name not given) (human podocalyxin [5]): 414 |
| Rb/huPodo 83 hIgG2 (antibody, V domains shown, human IgG2 constant regions) VH: CQSLAESGGRLVTPGTPLTLTCTASGIDLSSYAMGWVRQAPGKGLEYIGFIYASGSIFYASWAKGRFTISKTSSTTVDLKMTSLTTEDTATYFCARAGYYFGGNYDLNLWGQGTLVTVSS VL: DIVLTQTPASVEVAVGGTVTIKCQASQSISNYLAWYQRKPGQPPRLLIYRASTLASGVSSRFKGSGSGTQFTLTISGVECADAATYYCQQGYVSNNLDNIFGGGTEVVVK |  |  |  |  |  |  |  |  | FACS signal (name not given) [6]: 98300 |
| Rabbit Podo 83 (Parental rabbit antibody) (antibody, V domains shown, rabbit constant regions) VH: CQSLAESGGRLVTPGTPLTLTCTASGIDLSSYAMGWVRQAPGKGLEYIGFIYASGSIFYASWAKGRFTISKTSSTTVDLKMTSLTTEDTATYFCARAGYYFGGNYDLNLWGQGTLVTVSS VL: DIVLTQTPASVEVAVGGTVTIKCQASQSISNYLAWYQRKPGQPPRLLIYRASTLASGVSSRFKGSGSGTQFTLTISGVECADAATYYCQQGYVSNNLDNIFGGGTEVVVK |  |  |  |  |  |  |  |  | FACS signal (name not given) [7]: 139000; FACS signal (name not given) [8]: 53700; FACS signal (name not given) [9]: 179000; FACS signal (name not given) [10]: 89700; FACS signal (name not given) [11]: 15500; FACS signal (name not given) [12]: 90800; FACS signal (name not given) [13]: 24100; FACS signal (name not given) [14]: 129000 |
| huPodo 83 1:1 (humanized anti-podocalyxin antibody 83, version 1) (antibody, V domains shown) VH: EVQLVESGGGLVQPGGSLRLSCAASGIDLSSYAMGWVRQAPGKGLEWVSFIYASGSIFYASWAKGRFTISRDNSKNTLYLQMNSLRAEDTAVYYCARAGYYFGGNYDLNLWGQGTLVTVSS VL: DIQMTQSPSSLSASVGDRVTITCQASQSISNYLAWYQQKPGKVPKLLIYRASTLASGVPSRFSGSGSGTDFTLTISSLQPEDVATYYCQQGYVSNNLDNIFGGGTEVVVK | 61600 | 125000 | 157000 | 124000 | 112000 | 91500 | 128000 | 39400 | Kd (human podocalyxin [17]): 0.26 nM; IC50 (human podocalyxin [19]): 0.0355 µg/mL; EC50 (human podocalyxin [22]): 0.0331 µg/mL |
| huPodo 83 2:1 (humanized anti-podocalyxin antibody 83, version 2) (antibody, V domains shown) VH: EVQLVESGGGLVQPGGSLRLSCAASGIDLSSYAMGWVRQAPGKGLEWVSFIYASGSIFYASWAKGRFTISRDNSNTLYLQMNSLRAEDTAVYYCARAGYYFGGNYDLNLWGQGTLVTVSS VL: DIQMTQSPSSLSASVGDRVTITCQASQSISNYLAWYQQKPGKVPKLLIYRASTLASGVPSRFSGSGSGTDFTLTISSLQPEDVATYYCQQGYVSNNLDNIFGGGTEVVVK | 37700 | 123000 | 79400 | 139000 | 105000 | 67200 | 108000 | 22300 | IC50 (human podocalyxin [19]): 0.052 µg/mL; EC50 (human podocalyxin [22]): 0.0519 µg/mL |
| Rb VH, Vk 1:1 (Podo 83 rabbit VH, human CH1-CH3, human Ck, and humanized Vk) (antibody, V domains shown) VH: QSLAESGGRLVTPGTPLTLTCTASGIDLSSYAMGWVRQAPGKGLEYIGFIYASGSIFYASWAKGRFTISKTSSTTVDLKMTSLTTEDTATYFCARAGYYFGGNYDLNLWGQGTLVTVSS VL: DIQMTQSPSSLSASVGDRVTITCQASQSISNYLAWYQQKPGKVPKLLIYRASTLASGVPSRFSGSGSGTDFTLTISSLQPEDVATYYCQQGYVSNNLDNIFGGGTEVVVK | 74500 | 130000 | 76400 | 137000 | 115000 | 94800 | 124000 | 47700 |  |
| Mouse anti-podocalyxin antibody 3G2 (antibody, V domains shown) VH: EVQLQQSGPELVKPGASVKMSCKASGYTFTSYVMHWVKQKPGQGLEWIGYIHPYNDGTNYNEKFKGKATLTSDKSSNTAYMELSSLTSEDSAVYYCARSWDWYFDVWGAGTTVTVSS VL: QIVLTQSPAIMSASPGEKVTMTCSANSNVRYIHWHQQKSGTSPKRWIYDTSKLSSGVPARFSGSGSGTSYSLTISNMEAEDAATYYCQQWISNPLTFGAGTKLELK |  |  |  |  |  |  |  |  | Kd (human podocalyxin [17]): 3.34 nM |
